Measurements published in US10307466B2, “Composition comprising sophorolipid, physiologically active substance and oil or fat, and method for producing the same” (SARAYA CO., LTD., priority 2014, dated 2019).

Tested on: ICR mice
Test: Tail-flick test with 48° C. heat stimulation (enhancement of the analgesic effect of morphine)
Format: in vivo
Parameters: key: −: no analgesic effect was observed; ±: an analgesic effect comparable to the treatment control was observed; +: an analgesic effect comparable to the positive control was observed; ++: a higher analgesic effect than the positive control was observed; +++: a higher analgesic effect than “++” was observed
Experimental: For the evaluation of an analgesic effect, the tail-flick test was performed with 48° C. heat stimulation. In the tail-flick test, the tail of mice is exposed to heat stimulation, and latency for the animal to flick the tail is measured. The response latency is known to be delayed after administration of an analgesic drug such as morphine. The test is used for the evaluation of an analgesic effect.
ICR mice at 5 weeks old were subjected to daily simultaneous administration of an intraperitoneal dose of morphine (3 mg/kg) (morphine hydrochloride (trade name), Daiichi Sankyo) and an oral dose of one of the compositions of Examples 1 to 3 (300 mg/kg bLF) and Comparative Example 1 (300 mg/kg) for 5 days. At 30 and 90 minutes after the administration on day 5, the tail-flick test was performed.
As a treatment control, ICR mice at 5 weeks old were subjected to daily simultaneous administration of an intraperitoneal dose of morphine (3 mg/kg) and an oral dose of physiological saline for 5 days. The tail-flick test was then performed in the same manner as above.
As a negative control, daily simultaneous administration of an intraperitoneal dose of physiological saline and an oral dose of physiological saline was performed for 5 days. […]

B1: bovine lactoferrin (protein, UniProt P24627 20-708, looked up)
Lactotransferrin: APRKNVRWCTISQPEWFKCRRWQWRMKKLGAPSITCVRRAFALECIRAIAEKKADAVTLDGGMVFEAGRDPYKLRPVAAEIYGTKESPQTHYYAVAVVKKGSNFQLDQLQGRKSCHTGLGRSAGWIIPMGILRPYLSWTESLEPLQGAVAKFFSASCVPCIDRQAYPNLCQLCKGEGENQCACSSREPYFGYSGAFKCLQDGAGDVAFVKETTVFENLPEKADRDQYELLCLNNSRAPVDAFKECHLAQVPSHAVVARSVDGKEDLIWKLLSKAQEKFGKNKSRSFQLFGSPPGQRDLLFKDSALGFLRIPSKVDSALYLGSRYLTTLKNLRETAEEVKARYTRVVWCAVGPEEQKKCQQWSQQSGQNVTCATASTTDDCIVLVLKGEADALNLDGGYIYTAGKCGLVPVLAENRKSSKHSSLDCVLRPTEGYLAVAVVKKANEGLTWNSLKDKKSCHTAVDRTAGWNIPMGLIVNQTGSCAFDEFFSQSCAPGADPKSRLCALCAGDDQGLDKCVPNSKEKYYGYTGAFRCLAEDVGDVAFVKNDTVWENTNGESTADWAKNLNREDFRLLCLDGTRKPVTEAQSCHLAVAPNHAVVSRSDRAAHVKQVLLHQQALFGKNGKNCPDKFCLFKSETKNLLFNDNTECLAKLGGRPTYEEYLGTEYVTAIANLKKCSTSPLLEACAFLTR
Evaluation at 30 min (analgesic effect, tail-flick test) (30 minutes after administration on day 5, daily i.p. morphine 3 mg/kg + oral composition (300 mg/kg bLF) for 5 days): +
Evaluation at 90 min (analgesic effect, tail-flick test) (90 minutes after administration on day 5, daily i.p. morphine 3 mg/kg + oral composition (300 mg/kg bLF) for 5 days): +
